The values that follow come from article PMC3326535.

The target in experiment [1] is Human quinolinate phosphoribosyltransferase (hQPRTase) (human) (UniProt Q15274). The experiment is described as follows: crystal structure.
The target is the same in experiment [2]. The experiment is described as follows: SEC. Background: In gel filtration, larger molecules generally elute earlier.

With “Human quinolinate phosphoribosyltransferase (hQPRTase) (from UniProt Q15274 1-297) (enzyme)”, the stoichiometry N in experiment [1] and in experiment [2] was 6 throughout.

As usually defined, the stoichiometry N is a count of units in the complex or per binding partner.
